Assay results: the supplement of paper PMC10065799, “High-throughput profiling of sequence recognition by tyrosine kinases and SH2 domains using bacterial peptide display” (eLife, 2023)

Columns and labels:
AncSZ = experiment: phosphorylation enrichment, bacterial display (enrichment ratio); higher = better substrate or ligand; peptides without Tyr show the background
EPHB1 = EPHB1 (UniProt P54762); experiment: as above
EPHB2 = EPHB2 (UniProt P29323); experiment: as above
FGFR1 = FGFR1 (UniProt P11362); experiment: as above
FGFR3 = FGFR3 (UniProt P22607); experiment: as above
Chain of FGFR3 (P22607 whole entry, looked up): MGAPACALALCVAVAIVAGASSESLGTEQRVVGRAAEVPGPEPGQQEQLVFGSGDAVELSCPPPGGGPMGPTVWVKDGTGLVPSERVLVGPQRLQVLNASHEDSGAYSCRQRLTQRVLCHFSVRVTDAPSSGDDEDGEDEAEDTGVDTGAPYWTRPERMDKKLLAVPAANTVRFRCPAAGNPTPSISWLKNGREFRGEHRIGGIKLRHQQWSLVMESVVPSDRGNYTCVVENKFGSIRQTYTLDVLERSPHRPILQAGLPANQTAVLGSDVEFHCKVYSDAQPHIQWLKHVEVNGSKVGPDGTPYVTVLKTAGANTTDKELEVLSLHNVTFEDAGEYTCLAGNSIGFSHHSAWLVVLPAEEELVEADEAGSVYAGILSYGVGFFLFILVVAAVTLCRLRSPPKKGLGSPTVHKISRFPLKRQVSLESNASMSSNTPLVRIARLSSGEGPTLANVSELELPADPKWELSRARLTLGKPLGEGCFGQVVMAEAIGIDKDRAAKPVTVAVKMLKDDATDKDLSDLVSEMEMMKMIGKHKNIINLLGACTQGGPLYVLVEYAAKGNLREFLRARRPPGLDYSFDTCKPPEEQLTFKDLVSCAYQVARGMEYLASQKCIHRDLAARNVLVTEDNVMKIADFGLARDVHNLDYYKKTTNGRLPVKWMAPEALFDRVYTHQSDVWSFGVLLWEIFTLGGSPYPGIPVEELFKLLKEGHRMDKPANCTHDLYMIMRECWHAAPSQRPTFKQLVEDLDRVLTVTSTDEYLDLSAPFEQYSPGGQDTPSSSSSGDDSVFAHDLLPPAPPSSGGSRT

Fer (mouse) = experiment: as above
Fes = Fes (UniProt P07332); experiment: as above
Chain of Fes (P07332 whole entry, looked up): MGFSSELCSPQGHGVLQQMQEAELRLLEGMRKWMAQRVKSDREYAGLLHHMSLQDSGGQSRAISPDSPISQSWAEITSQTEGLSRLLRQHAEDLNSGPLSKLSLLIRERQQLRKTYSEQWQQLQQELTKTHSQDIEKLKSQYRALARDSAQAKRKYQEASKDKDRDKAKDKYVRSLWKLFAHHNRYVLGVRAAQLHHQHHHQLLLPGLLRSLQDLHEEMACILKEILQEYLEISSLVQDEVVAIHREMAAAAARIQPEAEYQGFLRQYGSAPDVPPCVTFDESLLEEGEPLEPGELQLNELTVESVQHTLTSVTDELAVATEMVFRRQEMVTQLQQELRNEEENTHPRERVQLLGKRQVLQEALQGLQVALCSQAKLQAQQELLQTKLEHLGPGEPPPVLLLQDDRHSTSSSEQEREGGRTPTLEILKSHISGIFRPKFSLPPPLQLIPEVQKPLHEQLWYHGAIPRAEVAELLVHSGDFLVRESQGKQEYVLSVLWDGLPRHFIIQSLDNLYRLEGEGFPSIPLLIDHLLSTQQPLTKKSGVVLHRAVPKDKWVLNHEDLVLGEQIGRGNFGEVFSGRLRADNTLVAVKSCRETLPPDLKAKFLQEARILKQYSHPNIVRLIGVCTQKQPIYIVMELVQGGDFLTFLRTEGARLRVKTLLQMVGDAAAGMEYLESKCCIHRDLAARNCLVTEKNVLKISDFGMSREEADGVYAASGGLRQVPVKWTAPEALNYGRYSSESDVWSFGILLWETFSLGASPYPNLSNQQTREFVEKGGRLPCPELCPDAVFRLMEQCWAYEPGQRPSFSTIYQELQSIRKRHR

Fyn = Fyn (UniProt P06241); experiment: as above
Chain of Fyn (P06241 whole entry, looked up): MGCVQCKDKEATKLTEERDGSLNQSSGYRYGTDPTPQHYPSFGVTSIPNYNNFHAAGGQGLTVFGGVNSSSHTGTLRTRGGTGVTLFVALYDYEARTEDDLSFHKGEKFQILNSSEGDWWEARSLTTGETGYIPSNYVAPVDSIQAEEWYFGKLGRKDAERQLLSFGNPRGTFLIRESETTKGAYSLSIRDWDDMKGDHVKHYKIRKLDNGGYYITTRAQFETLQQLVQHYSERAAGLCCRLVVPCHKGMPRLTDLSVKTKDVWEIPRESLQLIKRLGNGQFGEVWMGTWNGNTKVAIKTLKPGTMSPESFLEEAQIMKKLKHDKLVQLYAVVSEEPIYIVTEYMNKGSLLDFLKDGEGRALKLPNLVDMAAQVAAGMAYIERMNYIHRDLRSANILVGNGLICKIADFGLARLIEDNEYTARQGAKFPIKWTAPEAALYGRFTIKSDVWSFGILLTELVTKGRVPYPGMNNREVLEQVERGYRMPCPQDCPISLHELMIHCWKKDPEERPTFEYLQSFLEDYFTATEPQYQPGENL

Hck = Hck (UniProt P08631); experiment: as above
Chain of Hck (P08631 whole entry, looked up): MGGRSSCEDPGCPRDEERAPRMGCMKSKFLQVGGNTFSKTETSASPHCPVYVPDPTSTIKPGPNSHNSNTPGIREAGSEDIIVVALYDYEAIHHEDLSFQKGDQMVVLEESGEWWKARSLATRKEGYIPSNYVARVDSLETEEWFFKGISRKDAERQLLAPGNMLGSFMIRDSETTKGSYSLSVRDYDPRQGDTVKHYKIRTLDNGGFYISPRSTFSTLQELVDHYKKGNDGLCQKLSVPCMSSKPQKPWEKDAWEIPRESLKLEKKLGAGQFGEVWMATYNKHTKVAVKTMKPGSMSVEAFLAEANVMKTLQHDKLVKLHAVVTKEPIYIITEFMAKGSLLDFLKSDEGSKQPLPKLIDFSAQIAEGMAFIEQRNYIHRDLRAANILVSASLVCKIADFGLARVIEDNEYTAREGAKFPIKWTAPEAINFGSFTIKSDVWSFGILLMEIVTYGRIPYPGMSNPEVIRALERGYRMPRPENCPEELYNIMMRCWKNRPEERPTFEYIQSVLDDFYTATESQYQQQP

Jak2 = Jak2 (UniProt O60674); experiment: as above
MERTK = MERTK (UniProt Q12866); experiment: as above
Chain of MERTK (Q12866 whole entry, looked up): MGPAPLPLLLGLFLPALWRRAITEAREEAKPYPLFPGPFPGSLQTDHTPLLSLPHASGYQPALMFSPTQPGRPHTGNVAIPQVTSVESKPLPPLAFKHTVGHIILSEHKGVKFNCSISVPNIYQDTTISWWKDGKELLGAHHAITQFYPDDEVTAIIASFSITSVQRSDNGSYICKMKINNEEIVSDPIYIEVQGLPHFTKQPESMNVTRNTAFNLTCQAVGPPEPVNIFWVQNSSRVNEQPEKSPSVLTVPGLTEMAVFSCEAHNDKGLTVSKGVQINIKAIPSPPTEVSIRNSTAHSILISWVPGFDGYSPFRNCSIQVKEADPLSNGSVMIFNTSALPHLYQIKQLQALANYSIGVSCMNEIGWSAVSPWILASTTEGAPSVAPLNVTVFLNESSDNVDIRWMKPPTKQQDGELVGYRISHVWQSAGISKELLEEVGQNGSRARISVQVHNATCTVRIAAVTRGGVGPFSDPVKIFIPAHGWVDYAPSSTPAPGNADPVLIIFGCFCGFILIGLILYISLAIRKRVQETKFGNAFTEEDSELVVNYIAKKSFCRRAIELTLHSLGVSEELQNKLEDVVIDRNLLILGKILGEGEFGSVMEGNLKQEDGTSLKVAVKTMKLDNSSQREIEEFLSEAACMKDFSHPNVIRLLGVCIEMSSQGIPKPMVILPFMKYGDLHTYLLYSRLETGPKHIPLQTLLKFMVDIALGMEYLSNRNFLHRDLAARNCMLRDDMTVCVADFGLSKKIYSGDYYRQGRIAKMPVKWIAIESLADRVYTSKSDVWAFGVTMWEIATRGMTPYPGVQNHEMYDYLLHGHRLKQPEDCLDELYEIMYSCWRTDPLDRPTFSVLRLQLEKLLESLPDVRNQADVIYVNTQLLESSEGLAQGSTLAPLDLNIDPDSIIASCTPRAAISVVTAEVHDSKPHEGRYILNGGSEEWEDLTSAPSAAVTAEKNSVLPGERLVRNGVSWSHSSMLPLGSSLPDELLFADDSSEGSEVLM

c-Abl (mouse) = experiment: as above
c-Src = experiment: as above
Grb2 SH2 = Grb2 SH2 (UniProt P62993); experiment: SH2 binding enrichment of the phosphorylated peptide, bacterial display (enrichment ratio); higher = better substrate or ligand; peptides without Tyr show the background
Chain of Grb2 SH2 (P62993 whole entry, looked up): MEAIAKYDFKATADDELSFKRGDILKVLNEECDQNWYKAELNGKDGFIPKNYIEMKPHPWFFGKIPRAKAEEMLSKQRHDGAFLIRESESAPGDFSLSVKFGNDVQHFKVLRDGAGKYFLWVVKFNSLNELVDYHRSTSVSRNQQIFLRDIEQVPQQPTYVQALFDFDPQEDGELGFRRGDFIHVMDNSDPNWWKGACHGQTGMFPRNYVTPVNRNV

SHP2-C SH2 = experiment: as above
c-Src SH2 = experiment: as above
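Throughout, for SH2 binding enrichment of the phosphorylated peptide, bacterial display: peptide library displayed on the E. coli surface as eCPX fusions, selected cells deep-sequenced, score is each peptide's frequency after selection divided by its frequency in the input.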
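Throughout, for phosphorylation enrichment, bacterial display: 11-residue human phosphosite peptides and single-mutation variants displayed on the E. coli surface, counted by deep sequencing, each peptide's frequency after selection divided by its frequency in the unselected input library; frequency after pTyr selection over input frequency; kinase dosed for 20-30% of maximal phosphorylation in three min.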

Chain of EPHB2 (P29323 whole entry, looked up): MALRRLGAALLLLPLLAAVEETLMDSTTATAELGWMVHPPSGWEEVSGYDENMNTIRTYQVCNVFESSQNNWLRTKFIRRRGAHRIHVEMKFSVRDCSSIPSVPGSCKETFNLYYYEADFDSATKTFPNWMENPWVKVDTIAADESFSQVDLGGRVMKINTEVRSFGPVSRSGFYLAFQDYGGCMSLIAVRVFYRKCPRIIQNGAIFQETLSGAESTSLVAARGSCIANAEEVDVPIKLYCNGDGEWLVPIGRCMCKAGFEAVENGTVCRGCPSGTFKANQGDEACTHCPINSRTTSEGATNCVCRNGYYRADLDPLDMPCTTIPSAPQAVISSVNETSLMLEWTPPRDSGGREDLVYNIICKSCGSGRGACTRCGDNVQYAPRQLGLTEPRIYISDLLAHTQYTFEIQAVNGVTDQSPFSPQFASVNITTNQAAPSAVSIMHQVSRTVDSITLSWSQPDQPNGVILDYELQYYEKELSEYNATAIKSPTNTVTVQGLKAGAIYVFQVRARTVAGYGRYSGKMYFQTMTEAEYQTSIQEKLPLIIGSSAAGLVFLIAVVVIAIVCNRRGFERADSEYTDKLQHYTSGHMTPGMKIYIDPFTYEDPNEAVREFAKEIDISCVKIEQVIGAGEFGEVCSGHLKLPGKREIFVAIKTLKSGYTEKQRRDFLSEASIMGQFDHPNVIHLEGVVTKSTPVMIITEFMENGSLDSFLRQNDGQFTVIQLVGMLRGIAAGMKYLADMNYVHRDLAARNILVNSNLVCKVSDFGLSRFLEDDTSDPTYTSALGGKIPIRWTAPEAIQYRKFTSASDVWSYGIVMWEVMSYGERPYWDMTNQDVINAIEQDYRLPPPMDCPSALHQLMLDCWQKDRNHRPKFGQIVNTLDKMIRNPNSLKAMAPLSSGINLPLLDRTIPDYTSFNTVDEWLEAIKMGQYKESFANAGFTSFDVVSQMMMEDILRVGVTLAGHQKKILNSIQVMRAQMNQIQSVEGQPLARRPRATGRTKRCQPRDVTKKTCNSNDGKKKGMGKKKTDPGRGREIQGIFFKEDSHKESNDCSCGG

Sequence	phosphorylation enrichment (AncSZ)	phosphorylation enrichment (EPHB1)	phosphorylation enrichment (EPHB2)	phosphorylation enrichment (FGFR1)	phosphorylation enrichment (FGFR3)	phosphorylation enrichment (Fer (mouse))	phosphorylation enrichment (Fes)	phosphorylation enrichment (Fyn)	phosphorylation enrichment (Hck)	phosphorylation enrichment (Jak2)	phosphorylation enrichment (MERTK)	phosphorylation enrichment (c-Abl (mouse))	phosphorylation enrichment (c-Src)	SH2 binding enrichment (Grb2 SH2)	SH2 binding enrichment (SHP2-C SH2)	SH2 binding enrichment (c-Src SH2)
PSQRPYVFFFS [PTEN_Y174_R173P_YF]	1.27	0.726	0.559	2.12	1.14	0.693	1.51	0.605	0.439	1.21	0.755	1.25	0.973	1.53	1.3	1.42
PTATSYTPNLA [GABRA1_Y375]	0.568	0.291	0.314	0.459	0.607	0.571	0.521	0.643	0.477	0.349	0.357	0.505	0.306	0.699	0.604	0.729
PTFENYANSTQ [SLC12A3_Y70_H69N_YF]	0.853	0.542	0.711	0.615	0.539	0.52	1.08	0.437	0.766	0.895	0.572	0.531	0.391	1.62	0.369	0.787
PVQAAYEKVVA [HBB_Y131_Q132E]	0.855	0.744	0.345	0.786	0.699	0.958	1.02	0.88	0.591	0.568	0.507	0.551	0.415	0.885	0.886	2.59
PVQAAYQKLVA [HBB_Y131_V134L]	0.735	0.458	0.494	0.447	0.698	0.768	0.796	0.582	0.558	1.55	0.577	0.518	0.499	0.659	0.764	0.709
PVQAAYQKVVP [HBB_Y131_A136P]	0.763	0.787	0.631	0.727	0.775	0.827	0.64	0.878	0.803	0.88	0.619	0.561	0.626	0.881	0.751	1
PYSNPYENSLI [EPOR_Y489]	1.17	0.781	0.714	0.806	1.14	2.63	1.16	0.906	0.679	1.05	0.912	0.762	1.15	3.58	0.818	5.44
QAQMDYRRWQP [MPL_Y591_L594W]	0.548	0.523	0.539	0.402	0.491	0.49	0.795	0.461	0.424	0.762	0.373	0.745	0.361	0.635	0.55	0.386
QDRTYYESVRT [SPEN_Y633]	0.996	0.98	0.758	1.9	1.37	4.79	0.874	2.28	4.01	0.82	1.21	0.61	2.66	0.724	1.54	3.76
QEIATHRRLLE [KRT14_Y415_Y415H]	0.692	0.403	0.469	0.529	1.09	0.711	1.06	0.576	0.508	0.575	0.69	0.695	0.43	0.978	0.722	0.543
QFLMKYVWSAP [ABCD1_Y337_S342P]	1.68	0.834	0.738	0.634	1.03	0.836	1.63	0.562	0.674	1.34	0.61	0.749	0.429	0.941	0.653	0.595
QGGRHYMMIVD [GAA_Y438_R437H]	1.01	0.639	0.573	1.01	0.981	0.605	0.778	0.65	0.779	0.863	0.969	0.475	0.444	1.09	1.57	8.36
QGIIIYRAAFF [SLC25A4_Y187_YF]	1.21	0.605	0.338	0.327	0.634	0.581	1.69	0.342	0.422	1.17	0.61	1.04	0.542	0.699	0.772	0.307
QGLRLYRAHLA [BTK_Y617_P619A]	1.43	0.587	0.602	0.521	0.677	0.467	0.978	0.576	0.497	0.878	0.582	0.854	0.523	1.38	1.61	1.21
QITQVYGFFDE [PPP2CA_Y127_YF]	1.81	1.28	0.97	0.836	1.08	1.39	1.81	14.9	6.92	1.33	2.32	1.06	8.8	0.898	0.841	0.726
QITQVYGFYDE [PPP2CA_Y127]	1.24	0.716	1.12	0.615	1.27	1.3	1.21	9.45	3.7	1.06	1.58	1.01	6.85	0.867	0.693	1.72
QKKEEYKMALF [F8_Y1990_R1985Q_YF]	0.736	0.645	0.48	0.716	0.509	0.498	0.866	0.421	0.561	0.552	0.811	0.774	0.37	0.73	0.481	0.483
